T1: human BCMA (human, UniProt Q02223 1-54)
T1 construct: also called huBCMA; hBCMA
T1 sequence: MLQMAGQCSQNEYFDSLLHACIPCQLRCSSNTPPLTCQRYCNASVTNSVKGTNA


These binders were tested against T1, human BCMA (assay: SPR, immobilised IgG, 37° C).

Row | Binder | T½
1 | L3.PY/L1.AH/H3.TAQ (antibody, V domains shown, IgG in the assay) VH: EVQLLESGGGLVQPGGSLRLSCAASGFTFGSYAMTWVRQAPGKGLEWVSAISGSGGNTFYADSVKGRFTISRDNSKNTLYLQMNSLRAEDTAVYYCTRVSPIAAQMDYWGQGTLVTVSS VL: EIVLTQSPGTLSLSPGERATLSCRASQSVSAHYLAWYQQKPGQAPRLLIYGASSRATGIPDRFSGSGSGTDFTLTISRLEPEDFAVYYCQHYPYPPSFTFGQGTKVEIK | 9.68 min
2 | L3.PY/L3.KF/H3.AQ (antibody, V domains shown, IgG in the assay) VH: EVQLLESGGGLVQPGGSLRLSCAASGFTFGSYAMTWVRQAPGKGLEWVSAISGSGGNTFYADSVKGRFTISRDNSKNTLYLQMNSLRAEDTAVYYCARVSPIAAQMDYWGQGTLVTVSS VL: EIVLTQSPGTLSLSPGERATLSCRASQSVSSSYLAWYQQKPGQAPRLLIYGASSRATGIPDRFSGSGSGTDFTLTISRLEPEDFAVYYCKFYPYPPSFTFGQGTKVEIK | 5.09 min
3 | L3.PY/L1.FF/H3.YA (antibody, V domains shown, IgG in the assay) VH: EVQLLESGGGLVQPGGSLRLSCAASGFTFGSYAMTWVRQAPGKGLEWVSAISGSGGNTFYADSVKGRFTISRDNSKNTLYLQMNSLRAEDTAVYYCARVSPIYAGMDYWGQGTLVTVSS VL: EIVLTQSPGTLSLSPGERATLSCRASQSVSSFFLAWYQQKPGQAPRLLIYGASSRATGIPDRFSGSGSGTDFTLTISRLEPEDFAVYYCQHYPYPPSFTFGQGTKVEIK | 6.41 min
4 | L3.PY/L1.FF/H2.HA (antibody, V domains shown, IgG in the assay) VH: EVQLLESGGGLVQPGGSLRLSCAASGFTFGSYAMTWVRQAPGKGLEWVSAISHAGGNTFYADSVKGRFTISRDNSKNTLYLQMNSLRAEDTAVYYCARVSPIASGMDYWGQGTLVTVSS VL: EIVLTQSPGTLSLSPGERATLSCRASQSVSSFFLAWYQQKPGQAPRLLIYGASSRATGIPDRFSGSGSGTDFTLTISRLEPEDFAVYYCQHYPYPPSFTFGQGTKVEIK | 5.29 min
5 | L3.PY/L1.FF/H2.QL (antibody, V domains shown, IgG in the assay) VH: EVQLLESGGGLVQPGGSLRLSCAASGFTFGSYAMTWVRQAPGKGLEWVSAISGSGGNTFYADQLKGRFTISRDNSKNTLYLQMNSLRAEDTAVYYCARVSPIASGMDYWGQGTLVTVSS VL: EIVLTQSPGTLSLSPGERATLSCRASQSVSSFFLAWYQQKPGQAPRLLIYGASSRATGIPDRFSGSGSGTDFTLTISRLEPEDFAVYYCQHYPYPPSFTFGQGTKVEIK | 8.28 min
6 | L3.PY/L1.PH/H3.AQ (antibody, V domains shown, IgG in the assay) VH: EVQLLESGGGLVQPGGSLRLSCAASGFTFGSYAMTWVRQAPGKGLEWVSAISGSGGNTFYADSVKGRFTISRDNSKNTLYLQMNSLRAEDTAVYYCARVSPIAAQMDYWGQGTLVTVSS VL: EIVLTQSPGTLSLSPGERATLSCRASQSVSPHYLAWYQQKPGQAPRLLIYGASSRATGIPDRFSGSGSGTDFTLTISRLEPEDFAVYYCQHYPYPPSFTFGQGTKVEIK | 7.27 min
7 | L3.PY/L1.FF/H3.TAQ (antibody, V domains shown, IgG in the assay) VH: EVQLLESGGGLVQPGGSLRLSCAASGFTFGSYAMTWVRQAPGKGLEWVSAISGSGGNTFYADSVKGRFTISRDNSKNTLYLQMNSLRAEDTAVYYCTRVSPIAAQMDYWGQGTLVTVSS VL: EIVLTQSPGTLSLSPGERATLSCRASQSVSSFFLAWYQQKPGQAPRLLIYGASSRATGIPDRFSGSGSGTDFTLTISRLEPEDFAVYYCQHYPYPPSFTFGQGTKVEIK | 6.12 min
8 | L3.PY/L1.FF/H2.YQ (antibody, V domains shown, IgG in the assay) VH: EVQLLESGGGLVQPGGSLRLSCAASGFTFGSYAMTWVRQAPGKGLEWVSAISYQGGNTFYADSVKGRFTISRDNSKNTLYLQMNSLRAEDTAVYYCARVSPIASGMDYWGQGTLVTVSS VL: EIVLTQSPGTLSLSPGERATLSCRASQSVSSFFLAWYQQKPGQAPRLLIYGASSRATGIPDRFSGSGSGTDFTLTISRLEPEDFAVYYCQHYPYPPSFTFGQGTKVEIK | 7.61 min
9 | L3.PY/L1.FF/H2.DY (antibody, V domains shown, IgG in the assay) VH: EVQLLESGGGLVQPGGSLRLSCAASGFTFGSYAMTWVRQAPGKGLEWVSAIDYSGGNTFYADSVKGRFTISRDNSKNTLYLQMNSLRAEDTAVYYCARVSPIASGMDYWGQGTLVTVSS VL: EIVLTQSPGTLSLSPGERATLSCRASQSVSSFFLAWYQQKPGQAPRLLIYGASSRATGIPDRFSGSGSGTDFTLTISRLEPEDFAVYYCQHYPYPPSFTFGQGTKVEIK | 4.27 min
10 | L3.PY/L3.KF/H2.QL (antibody, V domains shown, IgG in the assay) VH: EVQLLESGGGLVQPGGSLRLSCAASGFTFGSYAMTWVRQAPGKGLEWVSAISGSGGNTFYADQLKGRFTISRDNSKNTLYLQMNSLRAEDTAVYYCARVSPIASGMDYWGQGTLVTVSS VL: EIVLTQSPGTLSLSPGERATLSCRASQSVSSSYLAWYQQKPGQAPRLLIYGASSRATGIPDRFSGSGSGTDFTLTISRLEPEDFAVYYCKFYPYPPSFTFGQGTKVEIK | 9.26 min
11 | L3.PY/L1.PH/H3.AE (antibody, V domains shown, IgG in the assay) VH: EVQLLESGGGLVQPGGSLRLSCAASGFTFGSYAMTWVRQAPGKGLEWVSAISGSGGNTFYADSVKGRFTISRDNSKNTLYLQMNSLRAEDTAVYYCARVSPIAAEMDYWGQGTLVTVSS VL: EIVLTQSPGTLSLSPGERATLSCRASQSVSPHYLAWYQQKPGQAPRLLIYGASSRATGIPDRFSGSGSGTDFTLTISRLEPEDFAVYYCQHYPYPPSFTFGQGTKVEIK | 8.61 min
12 | L3.PY/L1.PH/H2.HA (antibody, V domains shown, IgG in the assay) VH: EVQLLESGGGLVQPGGSLRLSCAASGFTFGSYAMTWVRQAPGKGLEWVSAISHAGGNTFYADSVKGRFTISRDNSKNTLYLQMNSLRAEDTAVYYCARVSPIASGMDYWGQGTLVTVSS VL: EIVLTQSPGTLSLSPGERATLSCRASQSVSPHYLAWYQQKPGQAPRLLIYGASSRATGIPDRFSGSGSGTDFTLTISRLEPEDFAVYYCQHYPYPPSFTFGQGTKVEIK | 9.99 min
13 | L3.PY/L1.FF/H2.QR (antibody, V domains shown, IgG in the assay) VH: EVQLLESGGGLVQPGGSLRLSCAASGFTFGSYAMTWVRQAPGKGLEWVSAISGSGGNTFYADQRKGRFTISRDNSKNTLYLQMNSLRAEDTAVYYCARVSPIASGMDYWGQGTLVTVSS VL: EIVLTQSPGTLSLSPGERATLSCRASQSVSSFFLAWYQQKPGQAPRLLIYGASSRATGIPDRFSGSGSGTDFTLTISRLEPEDFAVYYCQHYPYPPSFTFGQGTKVEIK | 6.54 min
14 | L3.PY/L1.FF/H3.AQ (antibody, V domains shown, IgG in the assay) VH: EVQLLESGGGLVQPGGSLRLSCAASGFTFGSYAMTWVRQAPGKGLEWVSAISGSGGNTFYADSVKGRFTISRDNSKNTLYLQMNSLRAEDTAVYYCARVSPIAAQMDYWGQGTLVTVSS VL: EIVLTQSPGTLSLSPGERATLSCRASQSVSSFFLAWYQQKPGQAPRLLIYGASSRATGIPDRFSGSGSGTDFTLTISRLEPEDFAVYYCQHYPYPPSFTFGQGTKVEIK | 7.51 min
15 | L3.PY/L1.PH/H3.TAQ (antibody, V domains shown, IgG in the assay) VH: EVQLLESGGGLVQPGGSLRLSCAASGFTFGSYAMTWVRQAPGKGLEWVSAISGSGGNTFYADSVKGRFTISRDNSKNTLYLQMNSLRAEDTAVYYCTRVSPIAAQMDYWGQGTLVTVSS VL: EIVLTQSPGTLSLSPGERATLSCRASQSVSPHYLAWYQQKPGQAPRLLIYGASSRATGIPDRFSGSGSGTDFTLTISRLEPEDFAVYYCQHYPYPPSFTFGQGTKVEIK | 5.43 min
16 | L3.PY/L1.FF/H3.AE (antibody, V domains shown, IgG in the assay) VH: EVQLLESGGGLVQPGGSLRLSCAASGFTFGSYAMTWVRQAPGKGLEWVSAISGSGGNTFYADSVKGRFTISRDNSKNTLYLQMNSLRAEDTAVYYCARVSPIAAEMDYWGQGTLVTVSS VL: EIVLTQSPGTLSLSPGERATLSCRASQSVSSFFLAWYQQKPGQAPRLLIYGASSRATGIPDRFSGSGSGTDFTLTISRLEPEDFAVYYCQHYPYPPSFTFGQGTKVEIK | 4.39 min
17 | L3.PY/L1.FF/H2.LT (antibody, V domains shown, IgG in the assay) VH: EVQLLESGGGLVQPGGSLRLSCAASGFTFGSYAMTWVRQAPGKGLEWVSAISLTGGNTFYADSVKGRFTISRDNSKNTLYLQMNSLRAEDTAVYYCARVSPIASGMDYWGQGTLVTVSS VL: EIVLTQSPGTLSLSPGERATLSCRASQSVSSFFLAWYQQKPGQAPRLLIYGASSRATGIPDRFSGSGSGTDFTLTISRLEPEDFAVYYCQHYPYPPSFTFGQGTKVEIK | 6.92 min
18 | L3.PY/L3.KF/H2.LT (antibody, V domains shown, IgG in the assay) VH: EVQLLESGGGLVQPGGSLRLSCAASGFTFGSYAMTWVRQAPGKGLEWVSAISLTGGNTFYADSVKGRFTISRDNSKNTLYLQMNSLRAEDTAVYYCARVSPIASGMDYWGQGTLVTVSS VL: EIVLTQSPGTLSLSPGERATLSCRASQSVSSSYLAWYQQKPGQAPRLLIYGASSRATGIPDRFSGSGSGTDFTLTISRLEPEDFAVYYCKFYPYPPSFTFGQGTKVEIK | 6.05 min
19 | L3.PY/L1.PH/H2.QR (antibody, V domains shown, IgG in the assay) VH: EVQLLESGGGLVQPGGSLRLSCAASGFTFGSYAMTWVRQAPGKGLEWVSAISGSGGNTFYADQRKGRFTISRDNSKNTLYLQMNSLRAEDTAVYYCARVSPIASGMDYWGQGTLVTVSS VL: EIVLTQSPGTLSLSPGERATLSCRASQSVSPHYLAWYQQKPGQAPRLLIYGASSRATGIPDRFSGSGSGTDFTLTISRLEPEDFAVYYCQHYPYPPSFTFGQGTKVEIK | 4.89 min
20 | L3.PY/L3.KF/H3.AE (antibody, V domains shown, IgG in the assay) VH: EVQLLESGGGLVQPGGSLRLSCAASGFTFGSYAMTWVRQAPGKGLEWVSAISGSGGNTFYADSVKGRFTISRDNSKNTLYLQMNSLRAEDTAVYYCARVSPIAAEMDYWGQGTLVTVSS VL: EIVLTQSPGTLSLSPGERATLSCRASQSVSSSYLAWYQQKPGQAPRLLIYGASSRATGIPDRFSGSGSGTDFTLTISRLEPEDFAVYYCKFYPYPPSFTFGQGTKVEIK | 7.44 min
21 | L3.PY/L3.KF/H2.DY (antibody, V domains shown, IgG in the assay) VH: EVQLLESGGGLVQPGGSLRLSCAASGFTFGSYAMTWVRQAPGKGLEWVSAIDYSGGNTFYADSVKGRFTISRDNSKNTLYLQMNSLRAEDTAVYYCARVSPIASGMDYWGQGTLVTVSS VL: EIVLTQSPGTLSLSPGERATLSCRASQSVSSSYLAWYQQKPGQAPRLLIYGASSRATGIPDRFSGSGSGTDFTLTISRLEPEDFAVYYCKFYPYPPSFTFGQGTKVEIK | 6.35 min
22 | L3.PY/L3.KF/H2.YQ (antibody, V domains shown, IgG in the assay) VH: EVQLLESGGGLVQPGGSLRLSCAASGFTFGSYAMTWVRQAPGKGLEWVSAISYQGGNTFYADSVKGRFTISRDNSKNTLYLQMNSLRAEDTAVYYCARVSPIASGMDYWGQGTLVTVSS VL: EIVLTQSPGTLSLSPGERATLSCRASQSVSSSYLAWYQQKPGQAPRLLIYGASSRATGIPDRFSGSGSGTDFTLTISRLEPEDFAVYYCKFYPYPPSFTFGQGTKVEIK | 5.18 min

From US20240018252A1 (Pfizer, published 2024)
